These results are taken from the nanobody polyreactivity screen of Harvey et al. (2022).

This series in a line: yeast display, Sf9 membrane polyspecificity reagent, FACS + sequencing; frameworks hold sequencing errors. The gist of the method: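 After 36–48 hours of galactose induction, yeast (Saccharomyces cerevisiae BJ5465) displaying a synthetic nanobody library were stained at 4 °C for 1 hour with 10% biotinylated, detergent-solubilized Sf9 membrane reagent. Streptavidin microbeads enriched the stained cells before FACS sorting into low and high (top ~1%) gates on anti-HA and streptavidin fluorescence. Each clone's polyreactivity label reflects its gate of origin.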
For “EEELVESGGGLVQAGGSLRLSCAASGSTFVSNAMGWYRQAPGKERELVAAISSSGGSTYYADSVKGRFTISRDNAKNTVYLQMNSLKPEDTAVYYCVDYYIGYTHNYNYWGQGTQVTVSS”, the “polyreactivity (PSR sort gate)” value was “low polyreactivity”.

Regarding “EEELVESGGGLVQAGGSLRLSCSASGSTFLVYSMGWYRQAPGKERELVAVITNSTVRTYYADSVKGRFTISRDNAKNTVYLQMDRLKPEDTAVYYCNADKEFAVLGQGMDYWGQGTQVTVSS”, the “polyreactivity (PSR sort gate)” value is “low polyreactivity”.

As for “EVQLVESGGGLVQAGGSLRLSCAASVSTFGSNAMGWYRQAPGKERELVAAITNGGSTNYADSVKGRFTISRDNEKNTVYLQMNSLKPEDTAVYYCNAVQSAYNKFWIALWGGYWGQGTQVTVSS”, the “polyreactivity (PSR sort gate)” value is “low polyreactivity”.

On to “HAQLQESGGGLVQAGGSLRRSCAASGSIFRFSGMGWYRLAPGKERELVASIGFGSITYYADRVNGRFTISRDNANNTVYLQMNSLKPEDTAVYYCAVQVQDESWLDYWGQGTQVTVSC”, for which the “polyreactivity (PSR sort gate)” value is recorded as “low polyreactivity”.

In the case of “HAQLQESGVGLVQAGGSLRRSCAASGSIFRFSGMGWYRRATGKERELVASIGFGSITYYADRVKVRFTISRDNANNTVYLQMTSLKPEDTAVYYCAVQVQDESWLDYWGQGTQVTVSC”, the “polyreactivity (PSR sort gate)” value is reported as “low polyreactivity”.

“HVKLVDSGGGLVKAGGSLRLTCAASGITIYTNDMGWSRQARGKERELVAAITTNDGDTYYADSVKGRFTISRDNEKNTVYLQMNSLKPEDNAVYYCAADSGSTSEYEYWGQGTQVTVSS”: the “polyreactivity (PSR sort gate)” value is on record as “low polyreactivity”.

On to “HVQHVESGGGLVQAGGSLRLSCAASGRTFGYYALGWYRQAPGKERELVARISTRGGSTNYADSVKGRFTISRDNAKNTVFLQMNSLKPEDTAVYSCYARGGYGGGYDYWVQGTQVTVSS”, for which the “polyreactivity (PSR sort gate)” value is listed as “high polyreactivity”.

With “HVQIVESGRGLVPAGGSLRLSCAASGFIFIRYSMGWSRQAPGKERELVAVISSGGGSTDYADSVKGRFTISRDYAKNTVFLQMISLKPEDTAVYYCAADFLPTYDPYYFWGQGTQVSVSS”, the “polyreactivity (PSR sort gate)” value was “low polyreactivity”.

With “HVQLEESGGGLVQAGGSLRLSCAASGRIFYPYAMGWYRQAPGKERELVAAISRSGGSTYYADSVKGRFTISRDNAKNTVYLQMNSLKPEDTAVYYCATGFYRAISHHGYDYWGQGTQVTVSS”, the “polyreactivity (PSR sort gate)” value is “low polyreactivity”.

As for “HVQLGESGGGLVQAGGSLRLSCAASGRISVFYTMGGYRQAPGKEREMVAVIRTSGGRTNYADSVKGRFTISRDNAKNTVYLQMNSLKPEDTAVYYCAARVVRYGYKYYYWGQGTQVTVSS”, the “polyreactivity (PSR sort gate)” value is recorded as “low polyreactivity”.

As to “HVQLLESGGGLVQAGGSLRLSCAASGSTFVYYAMGWYRQAPGKERELVAVITRGGRTYYADSVKGRFTISRDNAKTTVYLQMNSVKPEDSEVYYCNKVTPIYHDTVLDYWGQGTQVTVSS”, the “polyreactivity (PSR sort gate)” value was “high polyreactivity”.

For “HVQLQESGGGLVQAGGSLRLSCAASGNISYSRNMGWYRQAQGKERELVAAIDRGAITYYADSVKGRFTISRDNAKNTVDLQIYSLNPEDTAVYYCAAEYHDRWDHRYWGQGTQVTVSS”, the “polyreactivity (PSR sort gate)” value is on record as “high polyreactivity”.

With “HVQLQESGGGLVQAGGSLRLSCAASGSIFQATYMGWYRQAPGKEREFVASITNGSITNYADSVKGRFTIGRDNEKDTLYLQMNSLKPEDSAVYYCAVDRQYIPAFHYWGQGTQVTVSS”, the “polyreactivity (PSR sort gate)” value is recorded as “low polyreactivity”.

With “HVQLQESGGGLVQAGGSLRLSCAASGSIFQATYMGWYRQAPGKEREFVASITYGSITNYADSVKGRFTIGRDNAKDTLYLQMNSLKPEDTAVYYCAVDRHYIPDFHYWGQGTQVTVSS”, the “polyreactivity (PSR sort gate)” value is on record as “low polyreactivity”.

Consider “HVQLQESGGGLVQAGGSLRLSCAASGSIYQATYMGWYRQAPGKEREFVASITYGSITNYADSVKGRFTIGRDNANDTLYLQMNSLKPEDTAVYYCSVDRHYYWGQGTQVTVST”, for which the “polyreactivity (PSR sort gate)” value was “low polyreactivity”.

“HVQLQESGGGLVQAGVSLRLSCAASGNISYSRNMGWYRQAPGKERELVAAIDRGAITYYADSVKGRFTISRDNAKNTVYLQIYSLKPEDTAVYYCAAEYHDRWDHRYWGQGTQVTVSS”: the “polyreactivity (PSR sort gate)” value was “high polyreactivity”.

Take “HVQLQESGGGLVQEGGSLRLSCAASGSIFQATYMGWYRQAPGKELEFVASITYGSITNYADSVKGSFTIGRDNAKDTLYLQMNSLKPEDTAVYYCAVDRHYIPDFHYWGQGTQVTVSS”: the “polyreactivity (PSR sort gate)” value is listed as “low polyreactivity”.

Regarding “HVQLQESGGGMVQASGSPRLSCPASGNIFDADIMGWYRQAPGKQCELVASITDGGSTNYADSEKGRFTISSDNAKNTVYLQMNSLKPEDTAVYYCAAIAYPDIPTYFDYDSDYFYWGQGTHVTVSS”, the “polyreactivity (PSR sort gate)” value is “high polyreactivity”.

In the case of “HVQLVDSGGVLVQAGGSLRLSCAASGSIYDANAMGRYRQAPGKERELVAAISSSGGITYYADSVKGRFTISRDNAKNTVYLQMNSLKPEDTAVYYCVAEYGYIDYSYLFWSDYWGQGTQVTVSS”, the “polyreactivity (PSR sort gate)” value is “high polyreactivity”.

For the sequence “HVQLVESAGGLVQAGGRLSLSCAAYGSICDRYAMGWYRQAPGKEREKVAAIYSSGGRTYYADSVKGRFTISRDNAKNTVYLQMKSLKPEDTAVYYCNAEFWGGTPVAFSADYEYWGQGTQVTVSS”, the “polyreactivity (PSR sort gate)” value was “high polyreactivity”.

Turning to “HVQLVESGGGLVQAGASLRLSCAASGSTFSTYGMGCSRQAPGKVRELVADISDSTGSTYYADSVKGRFTISRDNAKYTVYLQMNSLKPEDNAVYYCAADSGEPSWGYDYWGQGTQVTVSS”, the “polyreactivity (PSR sort gate)” value is “low polyreactivity”.

Turning to “HVQLVESGGGLVQAGGCLRLSCAASGIIFLYNAMGWYRQAPGKERELVATITWSGGSTYYADSVKGRFTISRDNAKITVYLQMKSLKPEDTAVYYCAADYYYGYEFGYWGQGTQVTVSS”, the “polyreactivity (PSR sort gate)” value is recorded as “low polyreactivity”.

In the case of “HVQLVESGGGLVQAGGSLRISCAASGRIFGRNAMGWYRQAPGTERELVATISGGGSTYYADSVKGRFTISRDNAKNTVYFQMNSLKPEDTAVFYCAVGHRWWGAYAGYDYWGQGTQVTVSS”, the “polyreactivity (PSR sort gate)” value is listed as “low polyreactivity”.

As to “HVQLVESGGGLVQAGGSLRISCAASGRTFYKNAKGRYRQAPGKEREFVASISVSGGRTYYADSVKGRFTISRDNAKNTVYLQMNILNPEDSAVYYCNARASPLSQRDYWGQGTQVTVSS”, the “polyreactivity (PSR sort gate)” value was “low polyreactivity”.

With “HVQLVESGGGLVQAGGSLRLICGASGFTFPNYAMGGYRHAPGKERELVAAITSGGGRTNYADSVKGRFTISRDNAKITVYLQMNSLKPADTAVYYCNAEKTYLGSRYRPYNYWGQGTQVTVSS”, the “polyreactivity (PSR sort gate)” value is on record as “low polyreactivity”.

For the sequence “HVQLVESGGGLVQAGGSLRLSCAASGFMFSGYAMGWYRQAPGKVRELVAAITWSGSNTFYADSVKGRFTISRDNAKNTVYLQRNSLKPEDTAVYYCNAVSKYKRSDYYYWGQGTQVTVSS”, the “polyreactivity (PSR sort gate)” value is “high polyreactivity”.

“HVQLVESGGGLVQAGGSLRLSCAASGFTIKYYGMGWYRQAPGKERELVAAISRRGGSTYYADSVKGRFTISRDNAKNTVYLQMNSLKPEDTAVYYCNAQFARSSGFNYWGQGTQVTVSS”: the “polyreactivity (PSR sort gate)” value was “high polyreactivity”.

Take “HVQLVESGGGLVQAGGSLRLSCAASGINFSWYPMGWYRQAPGKERELVAAISSSGGTTFYADSVKGRFTISRDKAKNTVYLQMNSLKPEDTAVYYCAVVGPPYYTWRVWRPAYDYWGQVTQVTVSS”: the “polyreactivity (PSR sort gate)” value is recorded as “high polyreactivity”.

On to “HVQLVESGGGLVQAGGSLRLSCAASGLNFLYYGMGWYRQAPGKERELVAAISSGGGTYYADSVKGRFTISRDNAKNTVYLQMNSLKPEDTAVYYCAVDPQWTYWSTYRYDYWGQGTQVTVSS”, for which the “polyreactivity (PSR sort gate)” value was “low polyreactivity”.

In the case of “HVQLVESGGGLVQAGGSLRLSCAASGRIFKYYAMGWYRQAPGKERELLAAITYSGGSTNYADSVKGRFTISRDNAKNTVYLQMKSLKPEDTAVYYCNAYSYRNFLSHYNYWGQGTQVTVSS”, the “polyreactivity (PSR sort gate)” value is recorded as “high polyreactivity”.

On to “HVQLVESGGGLVQAGGSLRLSCAASGRIFPGNVMGWYRHAPGKERELVAGIDSSGGSTSYADSVKGRFTISRDNAKNSVYLQMNSLKPEDTAVYYCAKVRDQARYQWGYQEFDYWGEGTQVTVSS”, for which the “polyreactivity (PSR sort gate)” value is listed as “low polyreactivity”.

Take “HVQLVESGGGLVQAGGSLRLSCAASGRIFTLYDMGWYRQAPGKERELVAAISNSAGSTYYADSVKGRFTISRDNAKNTVYLQMNSLKPEDTAVYYCAAELWSWGGARDYWGQGTQVTVSS”: the “polyreactivity (PSR sort gate)” value is given as “high polyreactivity”.

Consider “HVQLVESGGGLVQAGGSLRLSCAASGRTFARYAMGWYRQAPGKERELVAAITRGGRTNYADSVKGRFTSSRDNAKNTVYLQMNSLKPEDTAVYYCNAYFVNPYDYWGQGTQVTVSS”, for which the “polyreactivity (PSR sort gate)” value is listed as “high polyreactivity”.

Regarding “HVQLVESGGGLVQAGGSLRLSCAASGRTFGAYTMGWYRQAPGKERELVAAINWSGGDTYYAYSVKGRFTISRDNAKNTVYLQMNSQKPEDTAVYYCNAEPRYGTYDYWGQGTQVTVSS”, the “polyreactivity (PSR sort gate)” value is listed as “low polyreactivity”.

Consider “HVQLVESGGGLVQAGGSLRLSCAASGRTFTYNTMGVYRKEPGKERELVAAISSSGGSTYYADSVKGRFTISRDNAKNTVYLQMNSLKPEDTAVYYCAKRYFSSSRYYYWGQGTQVTVSS”, for which the “polyreactivity (PSR sort gate)” value is on record as “high polyreactivity”.

As to “HVQLVESGGGLVQAGGSLRLSCAASGRTFYIYAMGWYRKAPGKERELVAAITWSGGTTYYADSVKGRFTISRDNAKNPVYLQMTSLKPEDTAVYYCAADSYGFYLESYYWGQGTQVTVSS”, the “polyreactivity (PSR sort gate)” value is reported as “low polyreactivity”.

In the case of “HVQLVESGGGLVQAGGSLRLSCAASGRTLYRNAMGWYRQAPGKERELVARITWSGASTYYADYVKGRFTISRDNAKNTVYLQMNSLKPEVTAVYYCAAQYLSRRYGPYYTYNYWGLGTQVTVSS”, the “polyreactivity (PSR sort gate)” value was “high polyreactivity”.

For “HVQLVESGGGLVQAGGSLRLSCAASGSIFDYNAIGWYRQAPGKERELVASSSGDSGSTYYADSVKWRFTISRDYAKNTVYLQMNSLKPEDTAVYYCAAPYVSWDYRYYYWGQGTQVTVSS”, the “polyreactivity (PSR sort gate)” value is “low polyreactivity”.

Consider “HVQLVESGGGLVQAGGSLRLSCAASGSIFESNAMGWYRQAPGKERELVAAYADSVKGRFTISRDNAKNTVYVQMNSLKPEETAVYYCAARIGTGVLPGRGANSHMDYWGQGTQVTVSS”, for which the “polyreactivity (PSR sort gate)” value was “low polyreactivity”.

On to “HVQLVESGGGLVQAGGSLRLSCAASGSIFYYNVMGWYRQAPGKERELVAAIDIDGSTYYADSVKGRFTISRDNAKNTVYLQMNSMKPEDTAVYYCNAQAPYWFSFYYDHKYDYWGQGTQVTVSS”, for which the “polyreactivity (PSR sort gate)” value was “low polyreactivity”.

As to “HVQLVESGGGLVQAGGSLRLSCAASGSNFDKYAMGGYRQAPGKERELGAAISRGGSSTYYADSVKGRFTISRDNAKNTVYLQMNSLKPEDTAVYYCAARIRNWPAMDYWGQGTQVTVSS”, the “polyreactivity (PSR sort gate)” value is recorded as “high polyreactivity”.
